Assay results published in patent US5726147A, “Human mutant tissue factor compositions useful as tissue factor antagonists” (priority 1995, dated 1998).

Test system: coagulation in recalcified plasma
Test: One stage clotting (coagulation) assay of specific functional activity of full-length TF mutants in CHO cell lysates
Format: biochemical
Details: for loss of function (reduction in specific functional activity as % of wild-type activity): full-length Ala mutant expressed in CHO cells, cell lysate, coagulant activity normalized to antigen, relative to wild-type TF; for reduction in tissue factor procoagulant cofactor activity when compared to wt-TF: residue substituted at the named position
Protocol: The full-length TF mutants prepared above were analyzed for function by coagulation assay. […] Coagulation factor deficient plasmas were purchased from George King Bio-medical. The chromogenic substrate, Spectrozyme FXa, was from American Diagnostica Inc. (Greenwich, Conn.).
An alternative approach was to use a polyvalent antibody purified by affinity for capturing TF followed by detection with the TF8-5G9 monoclonal antibody described above.
Initiation of coagulation by wild-type and mutant TF in recalcified plasma was determined after lysis of cell pellets from 2×10^6 cells/ml for each expressed full-length mutant with 15 mM octyl-glucopyranoside in HBS for 15 minutes at 37 C. followed by a 3-fold dilution.
All data represented are based on at least three independent determinations performed in duplicate.

Molecule | loss of function (reduction in specific functional activity as % of wild-type activity) | reduction in tissue factor procoagulant cofactor activity when compared to wt-TF [%]
S39-T40-S42: human tissue factor triple mutant with alanine at positions 39, 40 and 42 (protein, UniProt P13726 33-295, looked up, variant S39A T40A S42A) Tissue factor: SGTTNTVAAYNLTWKSTNFKTILEWEPKPVNQVYTVQIAAKAGDWKSKCFYTTDTECDLTDEIVKDVKQTYLARVFSYPAGNVESTGSAGEPLYENSPEFTPYLETNLGQPTIQSFEQVGTKVNVTVEDERTLVRRNNTFLSLRDVFGKDLIYTLYYWKSSSSGKKTAKTNTNEFLIDVDKGENYCFSVQAVIPSRTVNRKSTDSPVECMGQEKGEFREIFYIIGAVVFVVIILVIILAISLHKCRKAGVGQSWKENSPLNVS | 43% | –
Asp-145: human tissue factor mutant, Asp-145 exchanged for alanine (protein, UniProt P13726 33-295, looked up, variant D145A) Tissue factor: SGTTNTVAAYNLTWKSTNFKTILEWEPKPVNQVYTVQISTKSGDWKSKCFYTTDTECDLTDEIVKDVKQTYLARVFSYPAGNVESTGSAGEPLYENSPEFTPYLETNLGQPTIQSFEQVGTKVNVTVEDERTLVRRNNTFLSLRAVFGKDLIYTLYYWKSSSSGKKTAKTNTNEFLIDVDKGENYCFSVQAVIPSRTVNRKSTDSPVECMGQEKGEFREIFYIIGAVVFVVIILVIILAISLHKCRKAGVGQSWKENSPLNVS | 30-50% | –
Arg-200/Lys-201: human tissue factor mutant, Arg-200 and Lys-201 replaced by alanine (protein, UniProt P13726 33-295, looked up, variant R200A K201A) Tissue factor: SGTTNTVAAYNLTWKSTNFKTILEWEPKPVNQVYTVQISTKSGDWKSKCFYTTDTECDLTDEIVKDVKQTYLARVFSYPAGNVESTGSAGEPLYENSPEFTPYLETNLGQPTIQSFEQVGTKVNVTVEDERTLVRRNNTFLSLRDVFGKDLIYTLYYWKSSSSGKKTAKTNTNEFLIDVDKGENYCFSVQAVIPSRTVNAASTDSPVECMGQEKGEFREIFYIIGAVVFVVIILVIILAISLHKCRKAGVGQSWKENSPLNVS | 30-80% | –
Phe-147: human tissue factor mutant, Phe-147 exchanged for alanine (protein, UniProt P13726 33-295, looked up, variant F147A) Tissue factor: SGTTNTVAAYNLTWKSTNFKTILEWEPKPVNQVYTVQISTKSGDWKSKCFYTTDTECDLTDEIVKDVKQTYLARVFSYPAGNVESTGSAGEPLYENSPEFTPYLETNLGQPTIQSFEQVGTKVNVTVEDERTLVRRNNTFLSLRDVAGKDLIYTLYYWKSSSSGKKTAKTNTNEFLIDVDKGENYCFSVQAVIPSRTVNRKSTDSPVECMGQEKGEFREIFYIIGAVVFVVIILVIILAISLHKCRKAGVGQSWKENSPLNVS | 30-50% | –
Glu-105: human tissue factor mutant, Ala replacement for Glu-105 (protein, UniProt P13726 33-295, looked up, variant E105A) Tissue factor: SGTTNTVAAYNLTWKSTNFKTILEWEPKPVNQVYTVQISTKSGDWKSKCFYTTDTECDLTDEIVKDVKQTYLARVFSYPAGNVESTGSAGEPLYENSPEFTPYLATNLGQPTIQSFEQVGTKVNVTVEDERTLVRRNNTFLSLRDVFGKDLIYTLYYWKSSSSGKKTAKTNTNEFLIDVDKGENYCFSVQAVIPSRTVNRKSTDSPVECMGQEKGEFREIFYIIGAVVFVVIILVIILAISLHKCRKAGVGQSWKENSPLNVS | more than 50% | –
Val-67: human tissue factor mutant, Val-67 replaced by alanine (protein, UniProt P13726 33-295, looked up, variant V67A) Tissue factor: SGTTNTVAAYNLTWKSTNFKTILEWEPKPVNQVYTVQISTKSGDWKSKCFYTTDTECDLTDEIVKDAKQTYLARVFSYPAGNVESTGSAGEPLYENSPEFTPYLETNLGQPTIQSFEQVGTKVNVTVEDERTLVRRNNTFLSLRDVFGKDLIYTLYYWKSSSSGKKTAKTNTNEFLIDVDKGENYCFSVQAVIPSRTVNRKSTDSPVECMGQEKGEFREIFYIIGAVVFVVIILVIILAISLHKCRKAGVGQSWKENSPLNVS | 53% | –
Asn-199: human tissue factor mutant, Asn-199 replaced by alanine (protein, UniProt P13726 33-295, looked up, variant N199A) Tissue factor: SGTTNTVAAYNLTWKSTNFKTILEWEPKPVNQVYTVQISTKSGDWKSKCFYTTDTECDLTDEIVKDVKQTYLARVFSYPAGNVESTGSAGEPLYENSPEFTPYLETNLGQPTIQSFEQVGTKVNVTVEDERTLVRRNNTFLSLRDVFGKDLIYTLYYWKSSSSGKKTAKTNTNEFLIDVDKGENYCFSVQAVIPSRTVARKSTDSPVECMGQEKGEFREIFYIIGAVVFVVIILVIILAISLHKCRKAGVGQSWKENSPLNVS | 30-80% | ≥ 75
Tyr-71: human tissue factor mutant, Tyr-71 replaced by alanine (protein, UniProt P13726 33-295, looked up, variant Y71A) Tissue factor: SGTTNTVAAYNLTWKSTNFKTILEWEPKPVNQVYTVQISTKSGDWKSKCFYTTDTECDLTDEIVKDVKQTALARVFSYPAGNVESTGSAGEPLYENSPEFTPYLETNLGQPTIQSFEQVGTKVNVTVEDERTLVRRNNTFLSLRDVFGKDLIYTLYYWKSSSSGKKTAKTNTNEFLIDVDKGENYCFSVQAVIPSRTVNRKSTDSPVECMGQEKGEFREIFYIIGAVVFVVIILVIILAISLHKCRKAGVGQSWKENSPLNVS | 98% | –
Val-146: human tissue factor mutant, Val-146 exchanged for alanine (protein, UniProt P13726 33-295, looked up, variant V146A) Tissue factor: SGTTNTVAAYNLTWKSTNFKTILEWEPKPVNQVYTVQISTKSGDWKSKCFYTTDTECDLTDEIVKDVKQTYLARVFSYPAGNVESTGSAGEPLYENSPEFTPYLETNLGQPTIQSFEQVGTKVNVTVEDERTLVRRNNTFLSLRDAFGKDLIYTLYYWKSSSSGKKTAKTNTNEFLIDVDKGENYCFSVQAVIPSRTVNRKSTDSPVECMGQEKGEFREIFYIIGAVVFVVIILVIILAISLHKCRKAGVGQSWKENSPLNVS | 30-50% | –
Val-198: human tissue factor mutant, Val-198 replaced by alanine (protein, UniProt P13726 33-295, looked up, variant V198A) Tissue factor: SGTTNTVAAYNLTWKSTNFKTILEWEPKPVNQVYTVQISTKSGDWKSKCFYTTDTECDLTDEIVKDVKQTYLARVFSYPAGNVESTGSAGEPLYENSPEFTPYLETNLGQPTIQSFEQVGTKVNVTVEDERTLVRRNNTFLSLRDVFGKDLIYTLYYWKSSSSGKKTAKTNTNEFLIDVDKGENYCFSVQAVIPSRTANRKSTDSPVECMGQEKGEFREIFYIIGAVVFVVIILVIILAISLHKCRKAGVGQSWKENSPLNVS | 30-80% | –
Thr-106: human tissue factor mutant, Ala replacement for Thr-106 (protein, UniProt P13726 33-295, looked up, variant T106A) Tissue factor: SGTTNTVAAYNLTWKSTNFKTILEWEPKPVNQVYTVQISTKSGDWKSKCFYTTDTECDLTDEIVKDVKQTYLARVFSYPAGNVESTGSAGEPLYENSPEFTPYLEANLGQPTIQSFEQVGTKVNVTVEDERTLVRRNNTFLSLRDVFGKDLIYTLYYWKSSSSGKKTAKTNTNEFLIDVDKGENYCFSVQAVIPSRTVNRKSTDSPVECMGQEKGEFREIFYIIGAVVFVVIILVIILAISLHKCRKAGVGQSWKENSPLNVS | more than 50% | –
Ser-16: full-length human tissue factor mutant, Ser-16 replaced by alanine (protein, UniProt P13726 1-295, looked up, variant S16A, full-length, full-length human tissue factor mutant, Ser-16 replaced by alanine) METPAWPRVPRPETAVARTLLLGWVFAQVAGASGTTNTVAAYNLTWKATNFKTILEWEPKPVNQVYTVQISTKSGDWKSKCFYTTDTECDLTDEIVKDVKQTYLARVFSYPAGNVESTGSAGEPLYENSPEFTPYLETNLGQPTIQSFEQVGTKVNVTVEDERTLVRRNNTFLSLRDVFGKDLIYTLYYWKSSSSGKKTAKTNTNEFLIDVDKGENYCFSVQAVIPSRTVNRKSTDSPVECMGQEKGEFREIFYIIGAVVFVVIILVIILAISLHKCRKAGVGQSWKENSPLNVS | more than 70% | ≥ 75
Phe-19: full-length human tissue factor mutant, Phe-19 replaced by alanine (protein, UniProt P13726 1-295, looked up, variant F19A, full-length, full-length human tissue factor mutant, Phe-19 replaced by alanine) METPAWPRVPRPETAVARTLLLGWVFAQVAGASGTTNTVAAYNLTWKSTNAKTILEWEPKPVNQVYTVQISTKSGDWKSKCFYTTDTECDLTDEIVKDVKQTYLARVFSYPAGNVESTGSAGEPLYENSPEFTPYLETNLGQPTIQSFEQVGTKVNVTVEDERTLVRRNNTFLSLRDVFGKDLIYTLYYWKSSSSGKKTAKTNTNEFLIDVDKGENYCFSVQAVIPSRTVNRKSTDSPVECMGQEKGEFREIFYIIGAVVFVVIILVIILAISLHKCRKAGVGQSWKENSPLNVS | more than 70% | –
Thr-17: full-length human tissue factor mutant, Thr-17 replaced by alanine (protein, UniProt P13726 1-295, looked up, variant T17A, full-length, full-length human tissue factor mutant, Thr-17 replaced by alanine) METPAWPRVPRPETAVARTLLLGWVFAQVAGASGTTNTVAAYNLTWKSANFKTILEWEPKPVNQVYTVQISTKSGDWKSKCFYTTDTECDLTDEIVKDVKQTYLARVFSYPAGNVESTGSAGEPLYENSPEFTPYLETNLGQPTIQSFEQVGTKVNVTVEDERTLVRRNNTFLSLRDVFGKDLIYTLYYWKSSSSGKKTAKTNTNEFLIDVDKGENYCFSVQAVIPSRTVNRKSTDSPVECMGQEKGEFREIFYIIGAVVFVVIILVIILAISLHKCRKAGVGQSWKENSPLNVS | more than 70% | ≥ 75
